Consider two proteins from article PMC10215317, “The Rhodanese PspE Converts Thiosulfate to Cellular Sulfane Sulfur in Escherichia coli” (Antioxidants, 2023).

Substrate in this data set: O=S(O)(O)=S
The experiment in a line: purified protein. In kind it is biochemical, Escherichia coli. To be noted: 100 mM GSH fixed, 0.4 mM lead acetate, 100 mM HEPES pH 7.4, 37 °C.

B1: ΔNS-PspE (Escherichia coli K-12) (protein)
chain: AEHWIDVRVPEQYQQEHVQGAINIPLKEVKERIATAVPDKNDTVKVYCNAGRQSGQAKEILSEMGYTHVENAGGLKDIAMPKVKG
notes: Ni-NTA and Superdex 200
The Km is the substrate concentration at which the rate is half of its maximum. Broadly, the kcat is the number of substrate molecules converted per active site and unit of time at saturation. Broadly, the kcat/Km is the turnover number divided by the Michaelis constant. As for B1, the Km is given as 7.8 ± 1.6 mM, the kcat came to 0.04 s⁻¹ and the kcat/Km came to 4.8 M⁻¹ s⁻¹.

B2: GlpE (Escherichia coli K-12) (protein)
chain: MDQFECINVADAHQKLQEKEAVLVDIRDPQSFAMGHAVQAFHLTNDTLGAFMRDNDFDTPVMVMCYHGNSSKGAAQYLLQQGYDVVYSIDGGFEAWQRQFPAEVAYGA
notes: intact gene (324 bp), C-terminal His6 tag kept, pET30a, E. coli BL21(DE3); Ni-NTA and Superdex 200
Take B2: the Km is 33.6 ± 7.0 mM, the kcat came out at 0.02 s⁻¹ and the kcat/Km was 0.7 M⁻¹ s⁻¹.
